Source: patent US20180037620

How the values were obtained:
Assay in all cases: cell_activity
Conditions in all cases: 79/528 porcine fibroblast clones; both TALEN pairs (5-2 and 3-2) plus HR oligo used together
TALEN ETV2 3-2 Right = tested on: TALEN ETV2 3-2 Right
TALEN ETV2 5-2 Left = tested on: TALEN ETV2 5-2 Left
TALEN ETV2 3-2 Left = tested on: TALEN ETV2 3-2 Left
TALEN ETV2 5-2 Right = tested on: TALEN ETV2 5-2 Right

CCCCTAAGGGTCCTG (double strand) [ETV2 3-2 right half-site]
activity (% of clones homozygous for deletion) (TALEN ETV2 3-2 Right): 15

CTGGCCGGAAATCCCC (double strand) [ETV2 5-2 left half-site]
activity (% of clones homozygous for deletion) (TALEN ETV2 5-2 Left): 15

GATCCCAAGTCACACC (double strand) [ETV2 3-2 left half-site]
activity (% of clones homozygous for deletion) (TALEN ETV2 3-2 Left): 15

GGGCTGCACCAGGCT (double strand) [ETV2 5-2 right half-site]
activity (% of clones homozygous for deletion) (TALEN ETV2 5-2 Right): 15
